The target of this assay is Recombinant Ebola virus (EBOV) glycoprotein (Ebola virus (Zaire ebolavirus)) (UniProt Q05320). Put plainly: SEC + cross-linking.

Regarding “Recombinant Ebola virus (EBOV) glycoprotein (from UniProt Q05320) (natural protein)”, the stoichiometry N came out at 3.

The values are drawn from paper PMC5562721.
